For this experiment, the target named is α-synuclein wild-type (UniProt P37840). The experiment is described as follows: seeded fibril elongation kinetics.

“α-synuclein C-terminally truncated variant AS(1-119) (from UniProt P37840 1-119) (domain or fragment)” yielded an elongation rate constant k+ (monomer addition to AS(WT) seed fibril ends) of 2780 M⁻¹ s⁻¹.

The values above are taken from PMC6048717.
